Test results taken from paper PMC11557873 (Nature Communications, 2024).
Where a chain is given by its changes, count along the chain named. In names and notes the source's numbering stands. One block for each binder: values may come before it.

Biological target: T1, hgp130.hFc (human gp130 aa E23-E619 with a hFc tag) (human, UniProt P40189 23-619)
T1 sequence: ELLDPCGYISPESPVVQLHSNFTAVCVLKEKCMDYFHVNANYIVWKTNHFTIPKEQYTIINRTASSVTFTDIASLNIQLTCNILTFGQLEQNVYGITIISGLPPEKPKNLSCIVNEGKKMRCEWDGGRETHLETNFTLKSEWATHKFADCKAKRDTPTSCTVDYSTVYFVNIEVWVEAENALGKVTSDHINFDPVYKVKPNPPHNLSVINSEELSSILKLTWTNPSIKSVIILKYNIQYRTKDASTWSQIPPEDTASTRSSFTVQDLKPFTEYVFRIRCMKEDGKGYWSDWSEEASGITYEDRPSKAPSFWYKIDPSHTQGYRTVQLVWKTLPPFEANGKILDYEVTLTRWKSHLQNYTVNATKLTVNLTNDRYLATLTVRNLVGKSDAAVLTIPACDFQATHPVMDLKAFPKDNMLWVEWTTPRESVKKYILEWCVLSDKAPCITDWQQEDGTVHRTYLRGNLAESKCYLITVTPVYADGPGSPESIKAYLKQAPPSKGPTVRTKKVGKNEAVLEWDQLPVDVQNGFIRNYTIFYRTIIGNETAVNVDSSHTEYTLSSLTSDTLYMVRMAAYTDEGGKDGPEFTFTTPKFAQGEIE
Assay: SPR

B1: short form hOSM variant Δ(A26-E34)/C152S (aa Y35-R221) (ligand)
chain: YRVLLGQLQKQTDLMQDTSRLLDPYIRIQGLDVPKLREHCRERPGAFPSEETLRGLGRRGFLQTLNATLGCVLHRLADLEQRLPKAQDLERSGLNIEDLEKLQMARPNILGLRNNIYSMAQLLDNSDTAEPTKAGRGASQPPTPTPASDAFQRKLEGCRFLHGYHRFMHSVGRVFSKWGESPNRSRR
- Kd: 40.9 nM

B2: short form hOSM WT (hOSM_short, aa A26-R221), C-terminal myc-myc-His (ligand)
chain: AAIGSCSKEYRVLLGQLQKQTDLMQDTSRLLDPYIRIQGLDVPKLREHCRERPGAFPSEETLRGLGRRGFLQTLNATLGCVLHRLADLEQRLPKAQDLERSGLNIEDLEKLQMARPNILGLRNNIYCMAQLLDNSDTAEPTKAGRGASQPPTPTPASDAFQRKLEGCRFLHGYHRFMHSVGRVFSKWGESPNRSRR
- Kd: 8.58 nM

The remaining lines, values ahead:

- Kd: 69 nM
B3: short form hOSM variant C31S/C152S (ligand)
chain: B2 chain with C6S, C127S

- binding result: binds
B4: short form hOSM mutant V37R (ligand)
chain: B2 chain with V12R
